Data from patent US20140271603A1 (LABORATOIRE FRANCAIS DU FRACTIONNEMENT ET DES …, published 2014).
Substitutions are numbered along the chain they refer to. Values belong to the binder of their own block, whether it stands above or below them.

Assays:
[1] = biological target: T1, C3 convertase of the alternative pathway (C3bBb) formed on C3b-coated wells (UniProt P01024 749-1663; P01024 23-667; P00751 260-764, limits assumed); experiment: cell-based or functional assay
[2] = biological target: T1, C3 convertase of the alternative …; experiment: cell-based or functional assay; remark: listed apart in the source

T1 sequence (P01024 749-1663 limits assumed, chain 1 of 3): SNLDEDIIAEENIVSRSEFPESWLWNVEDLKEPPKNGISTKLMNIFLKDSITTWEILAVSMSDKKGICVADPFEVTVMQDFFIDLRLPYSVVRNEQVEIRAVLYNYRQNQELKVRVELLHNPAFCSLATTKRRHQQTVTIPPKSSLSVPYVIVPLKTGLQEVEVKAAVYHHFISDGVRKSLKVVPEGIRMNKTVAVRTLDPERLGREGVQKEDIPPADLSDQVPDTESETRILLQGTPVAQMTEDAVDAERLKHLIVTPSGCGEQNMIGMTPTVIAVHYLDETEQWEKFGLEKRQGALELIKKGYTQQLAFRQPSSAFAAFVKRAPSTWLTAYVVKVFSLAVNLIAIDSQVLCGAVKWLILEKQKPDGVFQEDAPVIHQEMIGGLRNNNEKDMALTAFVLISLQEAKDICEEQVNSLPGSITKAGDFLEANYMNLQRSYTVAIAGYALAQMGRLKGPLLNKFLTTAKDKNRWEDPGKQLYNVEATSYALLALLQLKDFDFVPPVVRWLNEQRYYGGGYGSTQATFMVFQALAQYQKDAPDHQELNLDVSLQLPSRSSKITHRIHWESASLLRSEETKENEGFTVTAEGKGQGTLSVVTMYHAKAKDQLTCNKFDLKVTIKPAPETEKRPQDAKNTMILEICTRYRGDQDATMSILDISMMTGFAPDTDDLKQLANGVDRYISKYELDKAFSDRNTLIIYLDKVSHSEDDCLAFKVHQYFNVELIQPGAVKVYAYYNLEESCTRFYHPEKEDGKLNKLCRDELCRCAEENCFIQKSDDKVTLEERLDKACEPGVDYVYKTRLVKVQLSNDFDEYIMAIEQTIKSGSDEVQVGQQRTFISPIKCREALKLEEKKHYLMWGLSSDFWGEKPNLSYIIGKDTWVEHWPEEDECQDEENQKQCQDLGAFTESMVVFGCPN
T1 sequence (P01024 23-667 limits assumed, chain 2 of 3): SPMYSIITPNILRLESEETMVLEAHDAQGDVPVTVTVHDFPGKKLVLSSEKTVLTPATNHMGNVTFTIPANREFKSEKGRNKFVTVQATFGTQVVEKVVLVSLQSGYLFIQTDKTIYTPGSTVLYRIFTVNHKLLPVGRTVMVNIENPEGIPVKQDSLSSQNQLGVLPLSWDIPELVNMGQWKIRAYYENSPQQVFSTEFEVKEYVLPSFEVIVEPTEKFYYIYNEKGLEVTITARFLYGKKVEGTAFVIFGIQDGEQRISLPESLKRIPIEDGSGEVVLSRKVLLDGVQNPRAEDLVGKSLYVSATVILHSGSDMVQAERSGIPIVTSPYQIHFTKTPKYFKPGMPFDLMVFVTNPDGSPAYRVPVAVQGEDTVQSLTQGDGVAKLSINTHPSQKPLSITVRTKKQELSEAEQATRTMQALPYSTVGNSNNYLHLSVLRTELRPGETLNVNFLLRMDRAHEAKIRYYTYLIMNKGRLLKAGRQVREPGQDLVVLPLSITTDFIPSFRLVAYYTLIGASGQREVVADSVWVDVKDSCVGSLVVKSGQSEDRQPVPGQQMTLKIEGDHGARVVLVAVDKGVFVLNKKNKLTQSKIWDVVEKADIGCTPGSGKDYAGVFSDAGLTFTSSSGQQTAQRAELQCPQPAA
T1 sequence (P00751 260-764 limits assumed, chain 3 of 3): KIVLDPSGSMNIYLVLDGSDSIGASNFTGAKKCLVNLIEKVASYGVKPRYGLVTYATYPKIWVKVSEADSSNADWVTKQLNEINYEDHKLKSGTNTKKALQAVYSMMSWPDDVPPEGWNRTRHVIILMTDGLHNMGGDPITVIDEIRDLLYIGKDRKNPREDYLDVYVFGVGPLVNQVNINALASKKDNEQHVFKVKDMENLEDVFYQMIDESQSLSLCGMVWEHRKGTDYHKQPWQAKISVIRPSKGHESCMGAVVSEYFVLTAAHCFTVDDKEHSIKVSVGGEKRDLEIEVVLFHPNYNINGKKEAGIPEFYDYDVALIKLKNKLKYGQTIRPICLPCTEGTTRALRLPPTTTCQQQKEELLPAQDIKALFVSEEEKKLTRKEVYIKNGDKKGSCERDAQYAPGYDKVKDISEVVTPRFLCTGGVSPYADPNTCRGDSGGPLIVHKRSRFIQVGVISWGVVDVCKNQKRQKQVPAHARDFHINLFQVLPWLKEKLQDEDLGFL

B1: recombinant human factor H, H402 variant, produced in the HEK 293F cell line (other)
chain: EDCNELPPRRNTEILTGSWSDQTYPEGTQAIYKCRPGYRSLGNVIMVCRKGEWVALNPLRKCQKRPCGHPGDTPFGTFTLTGGNVFEYGVKAVYTCNEGYQLLGEINYRECDTDGWTNDIPICEVVKCLPVTAPENGKIVSSAMEPDREYHFGQAVRFVCNSGYKIEGDEEMHCSDDGFWSKEKPKCVEISCKSPDVINGSPISQKIIYKENERFQYKCNMGYEYSERGDAVCTESGWRPLPSCEEKSCDNPYIPNGDYSPLRIKHRTGDEITYQCRNGFYPATRGNTAKCTSTGWIPAPRCTLKPCDYPDIKHGGLYHENMRRPYFPVAVGKYYSYYCDEHFETPSGSYWDHIHCTQDGWSPAVPCLRKCYFPYLENGYNQNHGRKFVQGKSIDVACHPGYALPKAQTTVTCMENGWSPTPRCIRVKTCSKSSIDIENGFISESQYTYALKEKAKYQCKLGYVTADGETSGSITCGKDGWSAQPTCIKSCDIPVFMNARTKNDFTWFKLNDTLDYECHDGYESNTGSTTGSIVCGYNGWSDLPICYERECELPKIDVHLVPDRKKDQYKVGEVLKFSCKPGFTIVGPNSVQCYHFGLSPDLPICKEQVQSCGPPPELLNGNVKEKTKEEYGHSEVVEYYCNPRFLMKGPNKIQCVDGEWTTLPVCIVEESTCGDIPELEHGWAQLSSPPYYYGDSVEFNCSESFTMIGHRSITCIHGVWTQLPQCVAIDKLKKCKSSNLIILEEHLKNKKEFDHNSNIRYRCRGKEGWIHTVCINGRWDPEVNCSMAQIQLCPPPPQIPNSHNMTTTLNYRDGEKVSVLCQENYLIQEGEEITCKDGRWQSIPLCVEKIPCSQPPQIEHGTINSSRSSQESYAHGTKLSYTCEGGFRISEENETTCYMGKWSSPPQCEGLPCKSPPEISHGVVAHMSDSYQYGEEVTYKCFEGFGIDGPAIAKCLGEKWSHPPSCIKTDCLSLPSFENAIPMGEKKDVYKAGEQVTYTCATYYKMDGASNVTCINSRWTGRPTCRDTSCVNPPTVQNAYIVSRQMSKYPSGERVRYQCRSPYEMFGDEEVMCLNGNWTEPPQCKDSTGKCGPPPPIDNGDITSFPLSVYAPASSVEYQCQNLYQLEGNKRITCRNGQWSEPPKCLHPCVISREIMENYNIALRWTAKQKLYSRTGESVEFVCKRGYRLSSRSHTLRTTCWDGKLEYPTCAKR
- IC50, acceleration of the dissociation of C3 convertase (culture supernatant HEK MD2-H402) [1]: 0.052 µg/mL

B2: recombinant human factor H, H402 variant, produced in the PER.C6 cell line (other)
chain: B1 chain
- IC50, acceleration of the dissociation of C3 convertase (culture supernatant PERC6 MD2-H402) [1]: 0.0546 µg/mL

Further lines, results first:

- IC50, acceleration of the dissociation of C3 convertase (culture supernatant HEK MD1-Y402) [1]: 0.0538 µg/mL
- IC50, acceleration of the dissociation of C3 convertase (culture supernatant HEK MD2-Y402) [1]: 0.0507 µg/mL
- IC50, acceleration of the dissociation of C3 convertase (culture supernatant HEK MD3-Y402) [1]: 0.0528 µg/mL
- IC50, acceleration of the dissociation of C3 convertase (sample: Purified FH HEK) [2]: 0.0506 µg/mL
B3: recombinant human factor H, Y402 variant, produced in the HEK 293F cell line (other)
chain: B1 chain with H384Y

- IC50, acceleration of the dissociation of C3 convertase (culture supernatant PERC6 MD2-Y402) [1]: 0.0487 µg/mL
- IC50, acceleration of the dissociation of C3 convertase (culture supernatant PERC6 MD3-Y402) [1]: 0.0559 µg/mL
- IC50, acceleration of the dissociation of C3 convertase (sample: Purified FH PER.C6) [2]: 0.0451 µg/mL
B4: recombinant human factor H, Y402 variant, produced in the PER.C6 cell line (other)
chain: B1 chain with H384Y
